Reference: paper PMC7977458, “The CK1δ/ε-AES axis regulates tumorigenesis and metastasis in colorectal cancer” (Theranostics, 2021)

Experiments:
[1] = target: SKP2 (UniProt Q13309); assay: anti-Flag co-IP, immunoblot; conditions: reference: wild type; sites S121
[2] = target: T1, Flag-SKP2 (Flag-tagged S phase kinase-associated protein 2) (UniProt Q13309 1-424); assay: pull-down; in vitro GST pulldown; GST-AES fragments and CK1ε-His purified from E. coli, Flag-SKP2 purified from HEK293T cells; with 1 mM ATP; Flag-SKP2 detected with anti-SKP2 antibody; conditions: both partners purified
T1 construct: S phase kinase-associated protein 2 (SKP2); source: HEK293T, transfected, in lysate; also purified from HEK293T cells transfected with the Flag-SKP2 plasmid
T1 sequence (Q13309 whole entry, the tested form may be a part): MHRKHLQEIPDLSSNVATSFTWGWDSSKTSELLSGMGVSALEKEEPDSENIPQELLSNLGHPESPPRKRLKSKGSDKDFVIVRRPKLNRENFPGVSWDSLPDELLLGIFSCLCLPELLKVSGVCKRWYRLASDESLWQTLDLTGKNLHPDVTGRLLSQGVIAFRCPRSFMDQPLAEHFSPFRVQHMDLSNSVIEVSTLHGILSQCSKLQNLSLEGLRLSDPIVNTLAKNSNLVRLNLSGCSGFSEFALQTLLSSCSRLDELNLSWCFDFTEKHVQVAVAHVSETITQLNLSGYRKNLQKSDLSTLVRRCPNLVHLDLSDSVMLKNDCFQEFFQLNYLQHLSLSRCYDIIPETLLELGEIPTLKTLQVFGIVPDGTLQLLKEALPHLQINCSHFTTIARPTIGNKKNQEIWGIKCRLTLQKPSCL

Row | Molecule | binding against the reference [1] | binding result [2]
1 | AES (amino-terminal enhancer of split) (from UniProt Q08117) S121A | lost | –
2 | GST-AES, full length, phosphorylated by CK1ε-His (natural protein, human, UniProt Q08117 1-197, looked up, phosphorylated in vitro by CK1ε-His with 1 mM ATP; the paper maps the CK1δ/ε site to Ser121, Amino-terminal enhancer of split (AES), human, full length; Same chain as m14, after the kinase reaction in the pull-down; also called full-length AES (with CK1ε-His and ATP); source: E. coli, purified; incubated with CK1ε-His and 1 mM ATP; not shown: GST, N-terminal, kept) MMFPQSRHSGSSHLPQQLKFTTSDSCDRIKDEFQLLQAQYHSLKLECDKLASEKSEMQRHYVMYYEMSYGLNIEMHKQAEIVKRLNGICAQVLPYLSQEHQQQVLGAIERAKQVTAPELNSIIRQQLQAHQLSQLQALALPLTPLPVGLQPPSLPAVSAGTGLLSLSALGSQAHLSKEDKNGHDGDTHQEDDGEKSD | – | binds
